Test results reported in the Human Domainome abundance scans (Beltran et al. 2025).
± gives the uncertainty stated by the source.

B1: RUN and FYVE domain-containing protein 1, residues 639 to 698; numbered along this chain, Q96T51 (parent)
chain: WLKDDEATHCRQCEKEFSISRRKHHCRNCGHIFCNTCSSNELALPSYPKPVRVCDSCHTL

Variants of: B1
Test: abundance fitness (aPCA) (normalised: wild type 0, dead -1); higher = more abundant; growth selection in yeast, the domain comes from the species named
Settings: Homo sapiens

WLKDDEATHCRQCEKEFSISRRKHHCRNCGIIFCNTCSSNELALPSYPKPVRVCDSCHTL and WLKDDEATHCRQCEKEFSISRRKHHCRNCGRIFCNTCSSNELALPSYPKPVRVCDSCHTL are within error of each other in abundance fitness: -0.113 ± 0.059 for the first, -0.142 ± 0.037 for the second.

Compared with WLKDDEATHCRQCEKEFSISRRKHHCRNCGTIFCNTCSSNELALPSYPKPVRVCDSCHTL, WLKDDEATHCRQCEKEFSISRRKHHCRNCGSIFCNTCSSNELALPSYPKPVRVCDSCHTL is higher in abundance fitness: -0.423 ± 0.076 for the first, -0.225 ± 0.039 for the second.

Compared with WLKDDEATHCRQCEKEFSISRRKHHCRNCGCIFCNTCSSNELALPSYPKPVRVCDSCHTL, WLKDDEATHCRQCEKEFSISRRKHHCRNCGMIFCNTCSSNELALPSYPKPVRVCDSCHTL is higher in abundance fitness: -0.445 ± 0.095 for the first, -0.113 ± 0.047 for the second.

First: WLKDDEATHCRQCEKEFSISRRKHHCRNCGLIFCNTCSSNELALPSYPKPVRVCDSCHTL
Second: WLKDDEATHCRQCEKEFSISRRKHHCRNCGVIFCNTCSSNELALPSYPKPVRVCDSCHTL
The abundance fitness of the first is higher: -0.012 ± 0.035 for the first, -0.626 ± 0.054 for the second.

WLKDDEATHCRQCEKEFSISRRKHHCRNCGWIFCNTCSSNELALPSYPKPVRVCDSCHTL and WLKDDEATHCRQCEKEFSISRRKHHCRNCGQIFCNTCSSNELALPSYPKPVRVCDSCHTL are within error of each other in abundance fitness: -0.017 ± 0.047 for the first, -0.019 ± 0.056 for the second.

Compared with WLKDDEATHCRQCEKEFSISRRKHHCRNCGPIFCNTCSSNELALPSYPKPVRVCDSCHTL, WLKDDEATHCRQCEKEFSISRRKHHCRNCGNIFCNTCSSNELALPSYPKPVRVCDSCHTL is higher in abundance fitness: -0.711 ± 0.076 for the first, -0.237 ± 0.063 for the second.

WLKDDEATHCRQCEKEFSISRRKHHCRNCGFIFCNTCSSNELALPSYPKPVRVCDSCHTL and WLKDDEATHCRQCEKEFSISRRKHHCRNCGGIFCNTCSSNELALPSYPKPVRVCDSCHTL are within error of each other in abundance fitness: 0.027 ± 0.069 for the first, 0.08 ± 0.037 for the second.

WLKDDEATHCRQCEKEFSISRRKHHCRNCGKIFCNTCSSNELALPSYPKPVRVCDSCHTL and WLKDDEATHCRQCEKEFSISRRKHHCRNCGDIFCNTCSSNELALPSYPKPVRVCDSCHTL are within error of each other in abundance fitness: -0.143 ± 0.062 for the first, -0.126 ± 0.051 for the second.

Going from WLKDDEATHCRQCEKEFSISRRKHHCRNCGEIFCNTCSSNELALPSYPKPVRVCDSCHTL to WLKDDEATHCRQCEKEFSISRRKHHCRNCGYIFCNTCSSNELALPSYPKPVRVCDSCHTL, the abundance fitness rises from -0.277 ± 0.07 to -0.106 ± 0.062.

WLKDDEATHCRQCEKEFSISRRKHHCRNCGHIFCTTCSSNELALPSYPKPVRVCDSCHTL and WLKDDEATHCRQCEKEFSISRRKHHCRNCGHIFCDTCSSNELALPSYPKPVRVCDSCHTL are within error of each other in abundance fitness: 0.22 ± 0.037 for the first, 0.324 ± 0.067 for the second.

WLKDDEATHCRQCEKEFSISRRKHHCRNCGHIFCKTCSSNELALPSYPKPVRVCDSCHTL and WLKDDEATHCRQCEKEFSISRRKHHCRNCGHIFCSTCSSNELALPSYPKPVRVCDSCHTL are within error of each other in abundance fitness: 0.183 ± 0.057 for the first, 0.23 ± 0.038 for the second.

WLKDDEATHCRQCEKEFSISRRKHHCRNCGHIFCFTCSSNELALPSYPKPVRVCDSCHTL and WLKDDEATHCRQCEKEFSISRRKHHCRNCGHIFCITCSSNELALPSYPKPVRVCDSCHTL are within error of each other in abundance fitness: -0.064 ± 0.059 for the first, 0.047 ± 0.066 for the second.

WLKDDEATHCRQCEKEFSISRRKHHCRNCGHIFCLTCSSNELALPSYPKPVRVCDSCHTL and WLKDDEATHCRQCEKEFSISRRKHHCRNCGHIFCVTCSSNELALPSYPKPVRVCDSCHTL are within error of each other in abundance fitness: 0.215 ± 0.034 for the first, 0.255 ± 0.034 for the second.

Compared with WLKDDEATHCRQCEKEFSISRRKHHCRNCGHIFCWTCSSNELALPSYPKPVRVCDSCHTL, WLKDDEATHCRQCEKEFSISRRKHHCRNCGHIFCRTCSSNELALPSYPKPVRVCDSCHTL is higher in abundance fitness: 0.088 ± 0.04 for the first, 0.172 ± 0.034 for the second.

WLKDDEATHCRQCEKEFSISRRKHHCRNCGHIFCPTCSSNELALPSYPKPVRVCDSCHTL and WLKDDEATHCRQCEKEFSISRRKHHCRNCGHIFCHTCSSNELALPSYPKPVRVCDSCHTL are within error of each other in abundance fitness: 0.233 ± 0.051 for the first, 0.178 ± 0.059 for the second.

Going from WLKDDEATHCRQCEKEFSISRRKHHCRNCGHIFCCTCSSNELALPSYPKPVRVCDSCHTL to WLKDDEATHCRQCEKEFSISRRKHHCRNCGHIFCGTCSSNELALPSYPKPVRVCDSCHTL, the abundance fitness rises from 0.237 ± 0.051 to 0.436 ± 0.039.

Compared with WLKDDEATHCRQCEKEFSISRRKHHCRNCGHIFCETCSSNELALPSYPKPVRVCDSCHTL, WLKDDEATHCRQCEKEFSISRRKHHCRNCGHIFCQTCSSNELALPSYPKPVRVCDSCHTL is lower in abundance fitness: 0.331 ± 0.045 for the first, 0.173 ± 0.058 for the second.

Going from WLKDDEATHCRQCEKEFSISRRKHHCRNCGHIFCMTCSSNELALPSYPKPVRVCDSCHTL to WLKDDEATHCRQCEKEFSISRRKHHCRNCGHIFCATCSSNELALPSYPKPVRVCDSCHTL, the abundance fitness rises from 0.191 ± 0.039 to 0.341 ± 0.037.

WLKDDEATHCRQCEKEFSISRRKHHCRNCGHAFCNTCSSNELALPSYPKPVRVCDSCHTL and WLKDDEATHCRQCEKEFSISRRKHHCRNCGHDFCNTCSSNELALPSYPKPVRVCDSCHTL are within error of each other in abundance fitness: -0.1 ± 0.14 for the first, -0.079 ± 0.13 for the second.

WLKDDEATHCRQCEKEFSISRRKHHCRNCGHLFCNTCSSNELALPSYPKPVRVCDSCHTL and WLKDDEATHCRQCEKEFSISRRKHHCRNCGHSFCNTCSSNELALPSYPKPVRVCDSCHTL are within error of each other in abundance fitness: -0.056 ± 0.036 for the first, 0.013 ± 0.043 for the second.

Compared with WLKDDEATHCRQCEKEFSISRRKHHCRNCGHMFCNTCSSNELALPSYPKPVRVCDSCHTL, WLKDDEATHCRQCEKEFSISRRKHHCRNCGHFFCNTCSSNELALPSYPKPVRVCDSCHTL is lower in abundance fitness: 0.161 ± 0.045 for the first, 0.042 ± 0.067 for the second.

Compared with WLKDDEATHCRQCEKEFSISRRKHHCRNCGHKFCNTCSSNELALPSYPKPVRVCDSCHTL, WLKDDEATHCRQCEKEFSISRRKHHCRNCGHTFCNTCSSNELALPSYPKPVRVCDSCHTL is lower in abundance fitness: 0.134 ± 0.048 for the first, 0.007 ± 0.065 for the second.
